Experimental data published in paper PMC3561135.

Tests used:
Assay in all cases: SEC; size exclusion chromatography of the purified six-His-tagged recombinant proteins; data not shown; conditions not given
[1] = target: Schistosoma mansoni phytochelatin synthase, N- and C-truncated form (PCS66-300) (Schistosoma mansoni)
[2] = target: Schistosoma mansoni phytochelatin synthase, N-truncated protein (PCS66-591) (Schistosoma mansoni)
[3] = target: Schistosoma mansoni phytochelatin synthase, full length protein (PCS1-591) (Schistosoma mansoni)

“Schistosoma mansoni phytochelatin synthase, N- and C-truncated form (PCS66-300) (domain or fragment)” showed a stoichiometry N [1] of 2.
“Schistosoma mansoni phytochelatin synthase, N-truncated protein (PCS66-591) (domain or fragment)” gave a stoichiometry N [2] of 2.
Work on “Schistosoma mansoni phytochelatin synthase, full length protein (PCS1-591) (enzyme)” yielded a stoichiometry N [3] of 2.
